Changes are numbered by the printed parent chain. In names and notes the source's numbering stands.
B1: Hu149-3 (antibody, V domains shown)
VH: EVQLVESGGGLVQPGGSLKLSCAASGFTFNTYAMNWVRQASGKGLEWVGRIRSKSNFYATAYAASVKGRFTISRDDSKNTAYLQMNSLKTEDTAVYYCVRGRDYGSSYAMDYWGQGTLVTVSS
VL: DIVMTQSPLSLPVTPGEPASISCRSSKSLLHSNANTYLYWFLQKPGQSPQLLIYRMSNLASGVPDRFSGSGSGTDFTLKISRVEAEDVGVYYCMQHLEYPLTFGGGTKVELK
notes: humanized IgG
B2: Hu149-7 (antibody, V domains shown)
VH: B1 VH
VL: B1 VL with F41Y
notes: humanized IgG
B3: Hu149-5 (antibody, V domains shown)
VH: B1 VH with A61Y
VL: B1 VL with F41Y
notes: humanized IgG
B4: Hu149-6 (antibody, V domains shown)
VH: B1 VH with N35H, A61Y
VL: B1 VL with F41Y
notes: humanized IgG
B5: Hu149-8 (antibody, V domains shown)
VH: B1 VH with A61Y, V99T
VL: B1 VL with F41Y
notes: humanized IgG
B6: 499B1A5 (antibody, V domains shown)
VH: EVQLVESGGGLVQPKGSLKLSCAASGFTFNTYAMNWVRQAPGKGLEWVARIRSKSNNYATYYADSVKDRFTISRDDSQSMLYLQMNNLKTEDTAMYYCVRHGRSGYLYAMDYWGQGTSVTVSS
VL: DIVMTQAAFSNPVTLGTSASISCRSSKSLLHSNGITYLYWYLQKPGQSPQLLIYQMSNLASGVPDRFSSSGSGTDFTLRISRVEAEDVGVYYCAQSLELPLTFGAGTKLELK
notes: Murine hybridoma antibody (supernatant)
B7: Hu348-1 (antibody, V domains shown)
VH: EVQLVESGGGLVQPGGSLKLSCATSGFSFSNYRMHWLRQASGKGLEWVGVITVKSDNYGANYAASVKGRFTISRDDSKSSVYLQMNSLKTEDTAVYYCSSLGRVAYWGQGTLVTVSS
VL: DIQMTQSPSSVSASVGDRVTITCKASQNVDTNVVWYQQKPGQSPKALIYSASSRYSGVPDRFSGSGSGTDFTLTISSLQPEDFATYYCQQHNSFPLTFGQGTKLEIK
notes: humanized IgG
B8: Hu348-2 (antibody, V domains shown)
VH: B7 VH
VL: B7 VL with Q42K, S43A
notes: humanized IgG
B9: Hu348-6 (antibody, V domains shown)
VH: B7 VH with L37V
VL: B7 VL
notes: humanized IgG
B10: Hu348-7 (antibody, V domains shown)
VH: B7 VH with V50R, A60T, N61A
VL: B7 VL
notes: humanized IgG
B11: Hu348-5 (antibody, V domains shown)
VH: B7 VH with T24A, R33A
VL: B7 VL
notes: humanized IgG
B12: Hu348-9 (antibody, V domains shown)
VH: B7 VH with S99T
VL: B7 VL
notes: humanized IgG
B13: Hu348-8 (antibody, V domains shown)
VH: B7 VH with S79N, S80T, V81A
VL: B7 VL
notes: humanized IgG
B14: Hu348-3 (antibody, V domains shown)
VH: B7 VH
VL: B7 VL with A46L
notes: humanized IgG
B15: Hu149-11G1m (antibody, human IgG1)
heavy: EVQLVESGGGLVQPGGSLKLSCAASGFTFNTYAMNWVRQASGKGLEWVGRIRSKSNFYATAYAASVKGRFTISRDDSKNTAYLQMNSLKTEDTAVYYCTRGREYGSSYAMDYWGQGTLVTVSSASTKGPSVFPLAPSSKSTSGGTAALGCLVKDYFPEPVTVSWNSGALTSGVHTFPAVLQSSGLYSLSSVVTVPSSSLGTQTYICNVNHKPSNTKVDKKVEPKSCDKTHTCPPCPAPELVGGPSVFLLPPKPKDTLMISRTPEVTCVVVDVSHEDPEVKFNWYVDGVEVHNAKTKPPEEQYNSTLRVVSVLTVLHQDWLNGKEYKCKVSNKALPAPIEKTISKAKGQPREPQVYTLPPSRDELTKNQVSLTCLVKGFYPSDIAVEWESNGQPENNYKTTPLVLDSDGSFFLYSKLTVDKSRWQQGNVFSCSVMHEALHNHYTQKSLSLSPGK
VL: B1 VL
B16: Hu149-12G1m (antibody, human IgG1)
heavy: B15 heavy with R102K
VL: B1 VL
notes: suffix G1m read as for Hu149-11G1m (L235V/F243L/R292P/Y300L/P396L)
B17: Hu149-11G1x (antibody)
heavy: B1 VH with V99T, D103E
VL: B1 VL
notes: Fc variant of Hu149-11; not shown: Fc variant 'G1x' is not defined in words
B18: Hu149-12G1x (antibody)
heavy: B1 VH with V99T, R102K, D103E
VL: B1 VL
notes: Fc variant of Hu149-12; not shown: Fc variant 'G1x' is not defined in words

Target: T1, cynomolgus CCR8 (cynomolgus, UniProt G7NYJ2 1-355)
T1 construct: whole, on cells
Assay: FACS on HEK293-cynomolgus CCR8 cells
Description: (§1) A total of 5×10⁴ cells for each well were seeded in 96-well plates and washed with FACS buffer (DPBD containing 1.5% FBS) for once. Antibodies were prepared with 3-fold serial dilution ranging from 100 nM to 0.0017 nM in FACS buffer. Cells were incubated with 50 μL of diluted antibodies at 4° C. for 1 hour. […] After primary antibody incubation, cells were washed for 3 times by FACS buffer. Then, cells were stained by Alexa Flu647 labeled anti-human IgG secondary antibody (Jackson ImmunoResearch, #109606170) or Alexa Flu647 labeled anti-mouse IgG secondary antibody (Jackson ImmunoResearch, #115605072) at 1:600 dilution in FACS buffer for 0.5 hour at 4° C. After washed for 3 times, Flow cytometry was performed to measure the binding.
T1 sequence (G7NYJ2 entry or part of it): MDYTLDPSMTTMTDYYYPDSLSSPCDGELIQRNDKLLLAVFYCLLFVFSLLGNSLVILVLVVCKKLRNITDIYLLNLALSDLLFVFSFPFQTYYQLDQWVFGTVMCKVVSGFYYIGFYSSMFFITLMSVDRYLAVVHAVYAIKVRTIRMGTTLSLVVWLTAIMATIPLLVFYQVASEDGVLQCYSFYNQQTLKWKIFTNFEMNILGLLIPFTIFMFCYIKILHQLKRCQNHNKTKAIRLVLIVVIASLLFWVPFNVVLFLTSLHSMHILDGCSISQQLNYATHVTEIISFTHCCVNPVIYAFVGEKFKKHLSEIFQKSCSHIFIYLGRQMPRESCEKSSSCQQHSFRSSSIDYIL

Binder | EC50 [nM] | Max MFI [MFI]
B1 | 0.205 | 19900
B2 | – | 488
B3 | – | 414
B4 | – | 443
B5 | – | 2420

Target: T2, cynomolgus CCR8 (cynomolgus, UniProt G7NYJ2 1-355)
T2 construct: whole, on cells; also called HEK293-Cynomolgus CCR8; ExpiCHO-S cynomolgus CCR8
Assay: FACS, hybridoma supernatant on cynomolgus CCR8 cells
Description: (§2) Binding of hybridoma supernatant on CHO-K1-human CCR8 and ExpiCHO-S cynomolgus CCR8 cells. A total of 660 96-well plates were seeded and screened by FACS binding from the hybridoma derived from immunized animals.
(§3) To obtain antibodies cross-reactive to human and cynomolgus CCR8, hybridomas from mice immunized with human and cynomolgus CCR8 DNAs were screened by FACS. Briefly, 50 μL ExpiCHO-S cells transfected with human CCR8 or cynomolgus CCR8 (cell density: 2×10⁶ cells/mL, viability>90%) were incubated with equal volume hybridoma supernatant in 96 well plate (Corning) at 4° C. for 1 hour. […] Finally, the mixture was washed and resuspended with FACS buffer, and subjected to FACS analysis on BD FACS Celesta.
T2 sequence (G7NYJ2 entry or part of it): as above

Binder | Binding Ratio (GFP + MFI)/(GFP - MFI)
B6 | 35.1

Target: T3, human CCR8 (human, UniProt P51685 1-355)
T3 construct: whole, on cells; also called hCCR8
Assay: FACS on HEK293-human CCR8 cells
Description: as §1
T3 sequence (P51685 whole entry, the tested form may be a part): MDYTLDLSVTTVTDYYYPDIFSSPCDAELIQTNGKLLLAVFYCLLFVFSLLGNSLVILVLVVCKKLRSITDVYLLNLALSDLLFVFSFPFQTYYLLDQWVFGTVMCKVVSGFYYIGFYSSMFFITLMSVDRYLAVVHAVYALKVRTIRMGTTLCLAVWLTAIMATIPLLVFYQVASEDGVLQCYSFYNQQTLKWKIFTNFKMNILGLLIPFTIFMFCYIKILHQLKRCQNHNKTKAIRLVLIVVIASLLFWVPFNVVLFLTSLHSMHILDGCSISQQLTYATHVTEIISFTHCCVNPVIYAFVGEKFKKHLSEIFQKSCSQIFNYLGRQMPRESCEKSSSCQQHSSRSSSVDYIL

Binder | EC50 [nM] | Max MFI [MFI]
B1 | 0.193 | 7000
B2 | 6.42 | 3110
B3 | 15 | 2470
B4 | – | 138
B5 | 0.24 | 3830

Target: T4, human CCR8 (human, UniProt P51685 1-355)
T4 construct: whole, on cells; In the β-arrestin assay CCR8 is fused to the ProLink (PK) tag; also called hCCR8; CHO-K1-human CCR8
Assay: FACS, hybridoma supernatant on CHO-K1-human CCR8 cells
Description: as §2, §3
T4 sequence (P51685 whole entry, the tested form may be a part): as above

Binder | Binding Ratio (GFP + MFI)/(GFP - MFI)
B6 | 34.4

Target: T3, human CCR8
Assay: FACS, competition with AF647-human CCL1 on CHO-K1-human CCR8 cells

Binder | IC50 [nM] | Max Inhibition (%)
B1 | 0.478 | 99.2
B2 | 37.8 | 59
B3 | 49.6 | 57.3
B4 | 2.37 | 1
B5 | 1.24 | 86.5

Target: T3, human CCR8
Assay: as above
Remark: another data set of the same source

Binder | IC50 [nM] | Max Inhibition (%)
B7 | 0.23 | 94.1
B8 | 0.216 | 92.4
B9 | 1.84 | 78.3
B10 | – | 25.6
B11 | – | 1.39
B12 | 0.333 | 88.2
B13 | 0.358 | 88.4
B14 | 0.362 | 83.1

Target: T4, human CCR8
Assay: FACS competition, hybridoma supernatant with 4 nM AF647-human CCL1 on human CCR8 cells

Binder | Inhibition Rate (%)
B6 | 95.1

Target: T1, cynomolgus CCR8
Assay: FACS on HEK293-cynomolgus CCR8 cells
Remark: another data set of the same source

Binder | EC50 [nM] | Max MFI [MFI]
B15 | 0.217 | 4.34e+06
B16 | 0.183 | 3.24e+06
B17 | 0.24 | 4.52e+06
B18 | 0.15 | 3.65e+06

Target: T3, human CCR8
Assay: FACS on HEK293-human CCR8 cells
Remark: another data set of the same source

Binder | EC50 [nM] | Max MFI [MFI]
B7 | 0.122 | 5110
B8 | 0.119 | 4740
B9 | 0.978 | 1980
B10 | – | 756
B11 | – | 163
B12 | 0.182 | 4500
B13 | 0.144 | 4730
B14 | 0.108 | 4090

Target: T3, human CCR8
Assay: FACS on HuT78 cells (endogenous human CCR8)

Binder | EC50 [nM] | Max MFI [MFI]
B15 | 0.384 | 45700
B16 | 0.209 | 55600
B17 | 0.427 | 52700
B18 | 0.313 | 52900

Target: T3, human CCR8
Assay: FACS, competition with CCL1 on CHO-K1-human CCR8 cells

Binder | IC50 [nM] | Max Inhibition (%)
B15 | 0.231 | 99.4
B16 | 0.146 | 99.6
B17 | 0.247 | 99.3
B18 | 0.17 | 100

Target: T1, cynomolgus CCR8
Assay: FACS on ExpiCHO-S-cynomolgus CCR8 cells

Binder | Max MFI [MFI] | EC50 [nM]
B7 | 336 | –
B8 | 296 | –
B9 | 82 | 31.1
B10 | 174 | –
B11 | 6 | –
B12 | 148 | –
B13 | 267 | –
B14 | 350 | –

Target: T3, human CCR8
Assay: FACS on CHO-K1-human CCR8 cells

Binder | EC50 [nM] | Max MFI [MFI]
B15 | 0.112 | 193000
B16 | 0.0668 | 183000
B17 | 0.115 | 200000
B18 | 0.0927 | 195000
